According to the supplement of paper PMC9170038:

Test system: MS2 coat protein
Assay: apparent KD of MS2 coat protein; designed switch direction (-1 OFF switch, 1 ON switch): -1; higher = weaker reporter binding
How it was run: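 The reported apparent KD is a per-design median over clusters, from curve fits of normalised cluster fluorescence. Protein titrations used SNAP-549-labelled MS2 coat protein, doubled from 0.7 or 1.5 nM to 3 µM, in Tris-HCl pH 7.5 buffer with KCl, MgCl2, BSA, DTT, tRNA and Tween-20, with no input, 200 uM small-molecule ligand, or an oligonucleotide input. The RNA switches were transcribed on Illumina chips by stalled E. coli RNA polymerase.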

[1] = Eterna round: R95, input ligand: FMN 200 uM
[2] = Eterna round: R95, input ligand: microRNA oligo, concentration not stated
[3] = Eterna round: R95, input ligand: none
[4] = input ligand: microRNA oligo, concentration not stated

Sequence	apparent KD of MS2 coat protein (input ligand: FMN 200 uM)	apparent KD of MS2 coat protein (input ligand: none)	apparent KD of MS2 coat protein [1]	apparent KD of MS2 coat protein [2]	apparent KD of MS2 coat protein [3]	apparent KD of MS2 coat protein [4]
AAAUUCAGAGGAUAUGCGCAUAGAUAAGACUUUUUUUCUUAACAUGAGGAUCACCCAUGUAGAAGGCUGUAAAA [Ex2 #60] (Eterna round: R97, puzzle: Exclusion 2)	20.5 nM	18.4 nM				
AACAAACAUGAGGAUCACCCAUGUGAGGAUAUGCAACAAAACAAAACAAAACAAAACAGCAGAAGGCACACAAC [A-G Solution By Eric] (puzzle: Exclusion 1)			17.2 nM	19.2 nM	14.6 nM	
AACAAUACUUACAUAAUAAGGCUUUUCAGGUCGGGUACCACAUGAGGAUCACCCAUGUAGCAGCCUAGGGAAUGAUA [JR_Sensorv2_tov2_Sub1233] (Eterna round: R96, puzzle: Sensor v2, turn-off variant 2)	49.2 nM	46.1 nM				36.4 nM
AACAGAUGAGGAUAUACACGAGGAGUGAUACCGUAUGCCAGACAUGAGGAUCACCCAUGUAGAAGGCAUAAUAG [Celeated] (Eterna round: R97, puzzle: Exclusion 2)	18.9 nM	12.4 nM				
AACAGUACAGGAUAUACAUGAGGAUCACCCAUGUGAGAAUUAAGUGGAAAACCACAAAGUAGAAGGGUACUGGA [Mat - Exclusion 3 - JL mod - D3] (Eterna round: R96, puzzle: Exclusion 3)	209 nM					23.3 nM
AACAGUACAGGAUAUACAUGAGGAUCACCCAUGUGAGAAUUAAGUGGCGAACCACAAAGUAGAAGGGUACUGGA [Mat - Exclusion 3 - JL mod - D1] (Eterna round: R96, puzzle: Exclusion 3)	98.2 nM	46.3 nM				38.5 nM
AACAGUAGAGGAUAUACACGAACAAACAUGAGGAUCACCCAUGUGAAACCGUGCUGUCCGGUAGAAGGCUACUAUA [Zavetiaton] (Eterna round: R97, puzzle: Exclusion 5)	40.6 nM	17.4 nM				
AACCUGAGGCAAAGCUUUAGGUGUACAUGAGGAUCACCCAUGUAGGAUAUGGUAGGCAAAGCUUACCAGAAGGACAUUAUGAUA [Mat - Exclusion NG 3 - Mod of JL - D52] (Eterna round: R96, puzzle: Exclusion NG 3)	66.9 nM	53.1 nM				44 nM
AACCUGAGGCUUUGCUUUAGGUGUACAUGAGGAUCACCCAUGUAGGAUAUGGUAGGCUUUGCUUACCAGAAGGACAUUAUGAUU [JL ENG3 1.18] (Eterna round: R96, puzzle: Exclusion NG 3)	119 nM	37.1 nM				33.4 nM
AACGAAGCAGGAUAUACAUGAGGAUCACCCAUGUGCUUGCAUGGCGUGGGAAGUCAUAGUAGAAGGGCUACGCC [EX3 #62] (Eterna round: R97, puzzle: Exclusion 3)	53.6 nM	22.1 nM				
AACGAGUGAGGAUAUCUUGACGGUUUGCAUCAGGCCCUCACAGAGAAGGCACUUGAGGAUCACCCAAGUGACCA [Eredgeinus] (Eterna round: R97, puzzle: Exclusion 4)	16.5 nM	14.2 nM				
AACGUACAGCAAAGCUGUACGCGUACAUGAGGAUCACCCAUGUAGGAUAUGGUAGGCAAAGCUUACUAGAAGGAUAGAGUGAUC [Mat - Exclusion NG 3 - Mod of JL - D77] (Eterna round: R96, puzzle: Exclusion NG 3)	497 nM	333 nM				358 nM
AACUAACAUGUAGGAUAUGCGUGGCGAAGCUAUGCAGAAGGACAUGAGGAUCACCCAUGUUUUAGCGUCUGCGUACAGAUGCAU [JL ENG1 1.41] (Eterna round: R96, puzzle: Exclusion NG 1)	146 nM	20.8 nM				16.6 nM
AACUAGGCAGGAUAUACAUGAGGAUCACCCAUGUGCCAAUACAAAGGGACUAACAGAGGUAGAAGGGCCUAGAA [ChP 13.04.2015 #2] (puzzle: Exclusion 3)			155 nM	36.8 nM	34.3 nM	
AACUGAUCUUGAGGAUAUCAAACACAUGAGGAUCACCCAUGUCACGAGACGGUGCUUUCCAGGAGUGAGAAGGUAAGCAGCGAG [Eternabot solution 44] (Eterna round: R96, puzzle: Exclusion NG 2)	31 nM	37.1 nM				28 nM
AACUGGACAGGAUAUGUUCUUGAGCACUUGAGGAUCACCCAAGUCAUCAAGAACUCAGGCACAGAAGGGUUUAUGA [jl-ex5.4.60 ViennaUCT mod] (Eterna round: R97, puzzle: Exclusion 5)	28.9 nM	13.4 nM				
AAGAAACAUGAGGAUCACCCAUGUCAGGAUAUCUCGAAAAGCAUAGAAAUAUGCGAAGAGAGAAGGGACUGCCC [ChP Ext 10-04-2015 #2] (puzzle: Exclusion 1)			20.8 nM	19.3 nM	19.2 nM	

Sequence	apparent KD of MS2 coat protein (input ligand: FMN 200 uM)	apparent KD of MS2 coat protein (input ligand: none)	apparent KD of MS2 coat protein [1]	apparent KD of MS2 coat protein [2]	apparent KD of MS2 coat protein [3]	apparent KD of MS2 coat protein [4]
AAGAAACAUGAGGAUCACCCAUGUGAGGAUAUGAAAAAGAAAAGAAAAGAAAGAAGGAUCAGAAGGCACAAAGG [salish99-ex1_r3_025] (puzzle: Exclusion 1)			43 nM	30.3 nM	34.1 nM	
AAGAAACAUGAGGAUCACCCAUGUGAGGAUAUGAAAAAGAAAAUAAAAUAAAGAAGAAUCAGAAGGCACAAAGG [Mat - Mod of Hog D4] (puzzle: Exclusion 1)			34 nM	24.9 nM	28.1 nM	
AAGAAACAUGAGGAUCACCCAUGUGAGGAUAUGACUAAGAAAAGAAAAGAAAGAAGAGUCAGAAGGCACAAAGG [salish99-ex1_r3_068] (puzzle: Exclusion 1)			215 nM	128 nM	189 nM	
AAGAAACAUGAGGAUCACCCAUGUGAGGAUAUGAGGAAGAAAAGAAAAGAAAGAAGACUCAGAAGGCACAAAGG [salish99-ex1_r3_073] (puzzle: Exclusion 1)			189 nM	49 nM	76.8 nM	
AAGAAACAUGAGGAUCACCCAUGUGAGGAUAUGAUAAAGAAAAGAAAAGAAAGAAGAUUCAGAAGGCACAAAGG [salish99-ex1_r3_034] (puzzle: Exclusion 1)			62.3 nM	39.4 nM	48.7 nM	
AAGAAACAUGAGGAUCACCCAUGUGAGGAUAUGAUGCGAAUUAUGUAUGUAGUAAGCAUCAGAAGGCACAAAGG [Mat - Mod Mix D39] (puzzle: Exclusion 1)				142 nM		
AAGAAACAUGAGGAUCACCCAUGUGAGGAUAUGAUUAAGAAAAGAAAAGAAAGAAGAUUCAGAAGGCACAAAGG [salish99-ex1_r3_054] (puzzle: Exclusion 1)			91.4 nM	72.5 nM	82.9 nM	
AAGAAACAUGAGGAUCACCCAUGUGAGGAUAUGGCCCGCCCGGCGUAAGCAAAAUAAAUCAGAAGGCACAAAGG [salish99_ex1_r4_008] (Eterna round: R97, puzzle: Exclusion 1)	39.5 nM	47.2 nM				
AAGAAACAUGAGGAUCACCCAUGUGAGGAUAUGUAAAAGAAAAUAAAAUAAAUAAGAAACAGAAGGCACAAAGG [Mat - Mod of Hog D19] (puzzle: Exclusion 1)			53.2 nM	39.2 nM	44.8 nM	
AAGAAACGAGGAUAUACAAUUGAGUGAGAGAGGGAAGUGUGACAUGAGGAUCACCCAUGUAGAAGGCGUGAGAG [JR_Exclu2_Sub086] (puzzle: Exclusion 2)			116 nM	82.3 nM	80.4 nM	
AAGAAGAAACAAGCUUUUUGCACGUCAGGUAGUGACGCAACAUGAGGAUCACCCAUGUAUAGGGUGGGAAAGGAUAG [JR_SV3TOV2_Sub048] (puzzle: Sensor v3, turn-off variant 2)			34 nM	30.9 nM	303 nM	
AAGAAGCAAGGAUAUACAACGGGCCACAGAGCCGAAGGGCAACAUGAGGAUCACCCAUGUAGAAGGUGCGUAAC [Lecebeqube] (puzzle: Exclusion 2)			149 nM	30.3 nM	28.2 nM	
AAGAAGUCAGGAUAUGCUAAAGAAAUAAAAAGAAAGAAAGAACAUGAGGAUCACCCAUGUAGAAGGGACAAGAA [Seheqenre Sankhptahi] (Eterna round: R96, puzzle: Exclusion 2)						31.8 nM
AAGAAUCAAGGAUAUGCAUGAUACGACAUGAGGAUCACCCAUGUCCUCACGCGUAUCCUUGCAGAAGGUGAGUAUA [EX5 A.22] (Eterna round: R97, puzzle: Exclusion 5)	15 nM	15.3 nM				
AAGAUGCGGGUAGGAUAUGGAAAUUAAUAAAGACCAGAAGGACUGGUCACACAACAUGAGGAUCACCCAUGUGUGUGUUGUGAA [AK ExNG1-6] (Eterna round: R96, puzzle: Exclusion NG 1)						9.06 nM
AAGCACGCGUAGGAUAUAAUCCAAACCUCGAGGUUAGAAGGACGCACAUGAGGAUCACCCAUGUUCCUAGCAUC [Eternabot (Original) Solution 19] (Eterna round: R97, puzzle: Exclusion 6)	20.7 nM	17.1 nM				
AAGCGACGAGGAUAUCGGUGGCUGAACAUGAGGAUCACCCAUGUGAACCGAUGGCAGUGUCGAGAAGGUGUUGAGU [Teceenla] (puzzle: Exclusion 5)				12.3 nM		
